The assay concerns the target p193myc (p193 protein harboring a C-terminal myc epitope tag, from CMV-p193myc) (mouse) (UniProt Q8VE73). The assay is described as follows: cell-based or functional assay.

Take “SV40 Large T Antigen (T-Ag) (from UniProt P03070 1-708)”: the co-localization to the cytoplasm in co-transfected NIH-3T3 cells (immune cytologic analyses) amounted to 63%.

For the origin of these results see patent US20030073236A1, “p193 proteins and nucleic acids, and uses thereof” (priority 1999, published 2003).
